# Experimental data reported in paper PMC10779143, “Collagen-like Osteoclast-Associated Receptor (OSCAR)-Binding Motifs Show a Co-Stimulatory Effect on Osteoclastogenesis in a Peptide Hydrogel System” (International Journal of Molecular Sciences, 2023).
# B1: hRANKL: human RANKL (hRANKL) (catalogue number: 310-01 from Peprotech, London, UK) (protein, UniProt O14788 69-317, looked up)
# extracellular domain: YFRAQMDPNRISEDGTHCIYRILRLHENADFQDTTLESQDTKLIPDSCRRIKQAFQGAVQKELQHIVGSQHIRAEKAMVDGSWLDLAKRSKLEAQPFAHLTINATDIPSGSHKVSLSSWYHDRGWAKISNMTFSNGKLIVNQDGFYYLYANICFRHHETSGDLATEYLQLMVYVTKTSIKIPSSHTLMKGGSTKYWSGNSEFHFYSINVGGFFKLRSGEEISIEVSNPSLLDPDQDATYFGAFKVRDID
# modifications: extracellular domain
# B2: RANKL: RANK ligand (RANKL), as used in cited studies (protein, UniProt O14788 140-317, looked up)
# Tumor necrosis factor ligand …: IRAEKAMVDGSWLDLAKRSKLEAQPFAHLTINATDIPSGSHKVSLSSWYHDRGWAKISNMTFSNGKLIVNQDGFYYLYANICFRHHETSGDLATEYLQLMVYVTKTSIKIPSSHTLMKGGSTKYWSGNSEFHFYSINVGGFFKLRSGEEISIEVSNPSLLDPDQDATYFGAFKVRDID
# Legend:
# [1] = test system: Raw 264.7 cells; assay: TRAP staining / osteoclast morphology of Raw 264.7 cells on peptide-coated tissue culture plastic; assay type: cell-based
# Protocol: Raw 264.7 cells were cultured and passaged as previously described. Cell adhesion to OP1_Hyp and OP1_Pro was assessed as shown by Barrow et al.. Briefly, 48-well plates were coated with 10 µg/mL of OSCAR-binding peptides overnight at 4 °C. The excess peptide was then removed by washing with PBS before adding 1% BSA to block non-specific binding sites for 1 h at 25 °C. Raw 264.7 cells were then resuspended at a concentration of 2 × 10^5 cells/mL and added to the well. Cells were cultured with different concentrations of human RANKL (hRANKL) (catalogue number: 310-01 from Peprotech, London, UK) (0–100 ng/mL) for up to 5 days to assess the contribution of the OSCAR-binding peptides OP1_Hyp and OP1_Pro to the differentiation of Raw 264.7 cells to mature OCs.
# After 5 days of post-culture, Raw 264.7 cells were fixed in 4% PFA for 15 min at room temperature. TRAP was stained following the manufacturer’s protocol and evaluated by light microscopy (ThermoFisher, Swindon, UK). Multinucleated TRAP+ cells containing more than three nuclei were scored as mature OCs.
# [2] = test system: Raw 264.7 cells; details: cited from earlier work
Molecule,"Differentiation, 1 ng/mL hRANKL ([1]; 5 days on TCP, 1 ng/mL hRANKL)","Average cell diameter of treated cells ([1]; 5 days, 100 ng/mL hRANKL, TCP with OP1_Hyp or OP1_Pro, untreated cells 38.1 ± 8.8 µm)","OSCAR and TRAP levels, 50 ng/mL RANKL only ([2]; days 1-4, ref Lampiasi et al. [35])",Lowest optimal concentration for osteoclastic cell formation ([2]; ref Song et al. [29])
B1,No differentiation was observed,273.9 ± 73.4 µm,,
B2,,,increased significantly between days 1 and 2 of culture before decreasing sharply on days 3 and 4,30 ng/mL
